Measurements published in patent publication US10683486B2, “Methods for producing hepatocytes” (BioLamina AB, priority 2015, dated 2020).

Legend:
Assay type in all cases: cell-based, human
[1] = test system: endoderm and hepatic cells differentiated from H9 hESCs; assay: Immunostaining of endoderm and hepatoblast markers (hepatoblast specification)
Method: H9 human embryonic stem cells (hESCs) were cultured and maintained in a humidified 37° C., 5% CO2 incubator. Three different substrates were then prepared in 96-well plates. The first substrate was pre-coated with Matrigel® (MG), and served as a control. The second substrate was coated with 5 micrograms per square centimeter (μg/cm^2) of laminin-521 (LN-521).
(§1) Differentiation was initiated at 40% confluence, by replacing serum-free medium mTESR1 (Stem Cell Technologies) with endoderm differentiation medium—RPMI 1640 containing 1×B27 (Life Technologies), 100 ng/mL Activin A (PeproTech) and 50 ng/mL Wnt3a (R&D). The medium was changed every 24 hours, for 72 hours. On day 4, endoderm differentiation medium was replaced with hepatoblast differentiation medium, and this was renewed every second day for a further five days. The medium consisted of KO-DMEM (Life Technologies), Serum Replacement (Life Technologies), 0.5% Glutamax (Life Technologies), 1% non-essential amino acids (Life Technologies), 0.2% β-mercaptoethanol (Life Technologies) and 1% dimethyl sulofxide (Sigma) for 5 days. At Day 9, differentiating cells were cultured in hepatocyte maturation medium HepatoZYME (Life Technologies) containing 1% Glutamax (Life Technologies), supplemented with 10 ng/mL hepatocyte growth factor (Peprotech) and 20 ng/mL oncostatin m (Peprotech).
(§2) Immunocytochemistry analysis was subsequently performed on hESC-derived hepatocytes. Cell cultures were fixed in 100% ice-cold methanol at −20 degrees Celsius for 30 minutes, and adjacent cells were pre-washed twice with PBS buffer at room temperature. Cell monolayers were blocked with 0.1% PBS-Tween solution containing 10% bovine serum albumin for 1 hour. Subsequently, the monolayers were incubated with primary antibodies diluted in PBS-0.1% Tween/1% BSA at 4 degrees Celsius overnight. After 24 hours, the primary antibodies were removed and the fixed monolayers were washed three times with PBS-0.1% Tween/1% BSA. Cells were incubated with appropriate secondary antibodies diluted in PBS-0.1% Tween/1% BSA for one hour at room temperature and washed with three times with PBS. Cultures were then mounted with PermaFluor™ Aqueous Mounting Medium and counterstained with NucBlue Hoescht 33342. The cells were imaged with the Zeiss Axio Observer Z1 microscope with LD PlanNeoFluar objective lenses, and a Zeiss AxioCamMR3 camera was used for image acquisition. The images were processed through Zeiss Axiovision SE 64 Rel 4.8 and analyzed using Zeiss Axiovision version 4.9.1.0. The percentage of positive cells and standard deviation was estimated from at least five random fields of view.
Next, the efficiency of the differentiation process was measured. FIG. 4 is a set of 15 photomicrographs of endoderm and hepatic cells grown on the three different substrates, 10× or 20× magnification (indicated by scale), on day 3 of differentiation.
FOXA2 was expressed on all substrates at day 3. […] SOX17 staining was more varied across the three substrates; it was lowest on MG and highest on LN-521. As cell differentiation progressed and hepatic fate was specified, cells began expressing high levels of hepatoblast markers. AFP, HNF4a, and CK19 were expressed in the majority of cells on all three substrates. […] As shown, hepatoblast specification on all three matrices appeared equivalent and highly efficient.

hESC-derived hepatocytes = assay: Immunostaining of hepatocyte markers and cytochrome P450 expression (hepatocyte maturation)
Method: as §1, §2
Post-hepatoblast specification, cell cultures were differentiated toward hepatocytes. Hepatocyte specification was assessed by immunostaining for albumin (ALB), E-cadherin (E CAD), cellular proliferation marker (Ki67), cytochrome p450 2D6 (CYP2D6), and cytochrome p450 3A4 (CYP3A4).
FIG. 5 is a set of nine photomicrographs of hepatic cells on day 18 of differentiation.
Given that cell organisation and cell division are important factors in hepatocyte function, hepatocyte metabolic capacity in vitro was studied. Stem cell derived hepatocytes were first examined for cytochrome P450 expression using well characterised antisera. CYP3A and CYP1A2 activity were measured from days 16-26 using pGlo technology. CYP activity was expressed as relative light units (RLU) per milliliter of media per milligram of protein. Levels of significance were measured by student t-test.
FIG. 6 is a set of six photomicrographs and two bar graphs of gene expression in hepatic cells.

[2] = test system: H9 hESCs differentiating to hepatocyte like cells; assay: Quantitative PCR gene expression during differentiation; conditions: days 0, 3, 9, 18; normalized to GAPDH
Method: Total RNA was isolated from cells using Trizol reagent. RNA quantification and quality was assessed using a Nanodrop system. The Life Technologies Superscript III reverse transcription kit was employed to prepare the cDNA. Quantitative PCR was performed with Taqman Fast Advance Mastermix and the appropriate primer pair and analysed using a Roche LightCycler 480 Real-Time PCR System. Gene expression was normalized to glyceraldehyde 3-phosphate dehydrogenase (GAPDH) and expressed as relative expression over the control sample (hESC on Day 0 of differentiation). Quantitative PCRs were performed in triplicate. Data analysis was performed using Roche LightCycler 480 Software (version 1.5). […] Cell extracts were collected during differentiation and mRNA assessed on days 0, 3, 9, and 18. […] It should be remembered that the “LN-511” label refers to a substrate containing a blend of laminin-521 and laminin-111 at a 1:3 weight ratio. FIG. 3 is a set of six bar graphs showing gene expression during differentiation on the three substrates (MG, LN-521, and LN-511) for six different genes whose name is above each graph. Relative gene expression was normalized to the housekeeping gene GAPDH. […] Endoderm associated gene FOXA2 peaked on all substrates on day 3 and then decreased thereafter. […] HNF4A was detected at day 3 on all substrates, but by day 9, significant differences in expression patterns emerged.

MAN11 cells = assay: Immunostaining of ALB and CYP3A in MAN11 derived cells (Example 5); conditions: MAN11, Day 18, Cameron protocol
Method: MAN11 cells, another GMP grade cell line, were plated on three different substrates. The first substrate was Matrigel® (MG), and served as a control. The second substrate was coated with 5 micrograms per square centimeter (μg/cm^2) of laminin-521 (LN-521). […] The cells were then differentiated according to the Cameron protocol.
FIG. 16 is a set of 15 photomicrographs at 10× magnification, organized into three columns and five rows. […] Row A is a set of phase contrast images of morphology. The scale bars are 200 μm. Row B is a set of photomicrographs showing the immunofluorescent staining of albumin (ALB) on the three different matrices. Row C is a set of photomicrographs showing the immunofluorescent staining of cytochrome P450 3A (CYP3A). Row D is a set of photomicrographs showing the immunofluorescent staining of multidrug resistance protein 1 (MRP1). Row E is a set of photomicrographs showing immunoglobulin G control staining for sheep, mouse, and rabbit antisera. All of these photos were taken on Day 18.

LN-521: substrate coated with 5 μg/cm^2 of laminin-521, the protein formed by joining α5, β2 and γ1 chains
AFP, percentage of positive cells and standard deviation ([1]; day 3 of differentiation): 98.3% ± 0.9 | CK19, percentage of positive cells and standard deviation ([1]; day 3 of differentiation): 98.5% ± 1.0 | FOXA2, percentage of positive cells and standard deviation ([1]; day 3 of differentiation): 80.4% ± 3.5 | HNF4A, percentage of positive cells and standard deviation ([1]; day 3 of differentiation): 86.4% ± 2.3 | SOX17, percentage of positive cells and standard deviation ([1]; day 3 of differentiation): 92.6% ± 1.8 | increase in cell size of differentiated hepatocytes ([1]; see CK19 photomicrographs): approximately 2 fold | Albumin, percentage of positive cells and standard deviation (hESC-derived hepatocytes; day 18 of differentiation): 89.5% ± 8.7 | E CAD, percentage of positive cells and standard deviation (hESC-derived hepatocytes; day 18 of differentiation): 67.4% ± 4.4 | Ki67, percentage of positive cells and standard deviation (hESC-derived hepatocytes; day 18 of differentiation, proliferation marker): 17.4% ± 6.2 | CYP2D6, percentage of positive cells and standard deviation (hESC-derived hepatocytes; immunostaining, FIG. 6): 85.7% ± 5.7 | CYP3A, percentage of positive cells and standard deviation (hESC-derived hepatocytes; immunostaining, FIG. 6): 91.3% ± 3.7 | AFP gene expression over time [2]: peaking on day 9 then decreasing at day 18 | HNF4A gene expression over time [2]: highest on day 9, decreasing by day 18 | ALB, percentage of positive cells and standard deviation (MAN11 cells): 89.2% ± 6.0 | CYP3A, percentage of positive cells and standard deviation (MAN11 cells): 90.8% ± 9.9
